# Assay results published in patent US20220125947A1 (published 2022).
# Biological target: T1, gamma-delta T cell receptor on human γδ T cells (human)
# T1 construct: also called AG000003021 (γδ T cells)
# Assay: flow cytometry, dose-response binding at 37 C, human γδ T cells
# Experimental: (§1) Binding of antibodies to human γδ T cells or SKW cell lines expressing Vγ9/Vδ2, Vγ9/Vδ2 or Vγ5/Vδ2 was carried out by flow cytometry. Briefly, the cells were centrifuged at 300×g for 5 minutes and the pellet was resuspended in 34 ml fresh media (in RPMI+10% FBS). 50 μL of the cells were then plated (44K cells/well) into assay plates. Samples were incubated for one hour at 37° C. in tissue culture (TC) incubator followed by wash steps by adding 100 μl FACS staining buffer. Secondary detention antibodies (A647 conjugated anti-human IgG Fc specific antibody (2 μg/mL) along with AF488 anti mouse CD3, clone OKT3 at 1 ug/mL) were added at 50 μL/well to appropriate wells according to the plate map. After incubating for 60 minutes at 37° C. in the TC incubator, cells were again washed as described above. This is followed by resuspension in 20 μL/well running buffer containing 1:1000 dilution of Sytox blue dead cell stain and the plates were run on iQue Screener.
# (§2) Gating and data analysis: Human anti-human Vγ9 antibody (VG9B2 mAb at 10 nM) was used to mark the gating of positive population. All cells were first gated for singlets on SCS-A vs. SCS-H dot plot, live/dead followed by CD3 positive population, and this subset of CD3 positive population was gated for Vγ9 positive binding using positive control mAb. Cells were also assessed for cell binding of control mAbs by RL1 (A647) Geomeans from the live cell population. Advanced metrics were used and normalization metrics were chosen to calculate fold over background wells containing secondary antibody alone (designated as ‘background’ within ForeCyt settings).
row,Max. Activity,Binder
1,1450 fold over background,"VG9B27 (antibody, human IgG1, kappa, V domains shown, IgG1, kappa) VH: EVQLVQSGAEVKKPGSSVKVSCKASGGTFSSYVISWVRQAPGQGLEWMGGILPILSTANYAQKFQGRVTITADKSTSTAYMELSSLRSEDTAVYYCARAHDYYYGMDVWGQGTMVTVSS VL: not shown"
2,1750 fold over background,"VG9B380 (antibody, human IgG1, lambda, V domains shown, IgG1, lambda) VH: QVQLQESGPGLVKPSETLSLTCTVSGGSISNYYWSWIRQPAGKGLEWIGRIYPSGITSYDPSLKSRVTMSLDTSKNQFSLKLTSVTAADTAVYYCAGIMGTKGAFDIWGQGTMVTVSS VL: QSALTQPASVSGSPGQSITISCTGTSSDVGGYNYVSWYQQHPGKAPKLLIYEVSNRPSGVSNRFSGSKSGSTASLTISGLQAEDEADYYCSSYTSTSVVFGGGTKLTVLG"
3,2290 fold over background,"VG9B186 (antibody, human IgG1, lambda, V domains shown, IgG1, lambda) VH: QVTLRESGPVLVKPTETLTLTCTVSGFSLTNIRMSVSWIRQPPGEALEWLAHIFSNDEKSYNSSLKSRLTISRDTSKSQVVLTLTNVDPVDTATYYCARMRLPYGMDVWGQGTMVTVSS VL: not shown"
4,1520 fold over background,"VG9B115 (antibody, human IgG1, kappa, V domains shown, IgG1, kappa) VH: QVTLRESGPTLVKPTQTLTLTCTFSGFSLSTYGVGVGWIRQPPGKALEWLALIYWNDDKRYNPSLKSRLTITKDTSKNQVVLTMTNMDPVGTATYYCSHESDWSYYFDYWGQGTMVTVSS VL: EIVLTQSPATLSLSPGERATLSCRASQSVSSYLAWYQQKPGLAPRLLIYDASNRATGIPARFSGSGSGTDFTLTISSLEPVDFAVYYCQQRSSWPWTFGQGTKVDIKR"
5,1540 fold over background,"VG9B462 (antibody, human IgG1, lambda, IgG1, lambda) heavy: not shown light: QSVLTQPASVSGSPGQSITISCTGTSSDVGGYNYVSWYQQHPGKAPKLMIYEVSNRPSGVSNRFSGSKSGNTASLTISGLQAEDEADYYCSSYTSTSVVFGGGTKLTVLGQPKAAPSVTLFPPSSEELQANKATLVCLISDFYPGAVTVAWKADSSPVKAGVETTTPSKQSNNKYAASSYLSLTPEQWKSHRSYSCQVTHEGSTVEKTVAPTECS"
6,1540 fold over background,"VG9B461 (antibody, human IgG1, lambda, IgG1, lambda) heavy: not shown light: QPVLTQSSSVSGSPGQSITISCTGTSSDVGGYNYVSWYQQHPGKAPKLMIYEVSNRPSGVSNRFSGSKSGNTASLTISGLQAEDEADYYCSSYTSTSVVFGGGTKVTVLGQPKAAPSVTLFPPSSEELQANKATLVCLISDFYPGAVTVAWKADSSPVKAGVETTTPSKQSNNKYAASSYLSLTPEQWKSHRSYSCQVTHEGSTVEKTVAPTECS"
7,1410 fold over background,"VG9B458 (antibody, human IgG1, lambda, IgG1, lambda) heavy: not shown light: QSVLTQPASVSGSPGQSITISCTGTSSDVGGYNYVSWYQQHPGKAPKLMIYEVSNRPSGVSNRFSGSKSGNTASLTISGLQAEDEADYYCSSYTSTSVVFGGGTKLTVLGQPKAAPSVTLFPPSSEELQANKATLVCLISDFYPGAVTVAWKADSSPVKAGVETTTPSKQSNNKYAASSYLSLTPEQWKSHRSYSCQVTHEGSTVEKTVAPTECS"
8,1750 fold over background,"VG9B203 (antibody, human IgG1, lambda, V domains shown, IgG1, lambda) VH: QVQLVQSGPGLVKPSETLSLTCTVSGDSIGHYYWNWIRQPAGKGLEWIGRIYTSGSTNYNPSLKSRVTMSVDTSKNQFSLKLSSVTAADTAVYYCARSGGNFYWYFDLWGRGTLVTVSS VL: QSVLTQPPSVSAAPGQKVTISCSGSSSNIGNNYVSWYQQVPGTAPKLLIYDNNKRPSGIPDRISGSKSGTSATLGITGLQTGDEADYYCGTWDSSLSAGVFGGGTKVTVLG"
9,1350 fold over background,"VG9B163 (antibody, human IgG1, lambda, V domains shown, IgG1, lambda) VH: QVQLVQSGGGLVKPGASLKLSCAASGFTFSNHGMSWVRQTSDKRLEWVASITRGGDTTYYPDNVKGRFTISRENAKNTLYLQMSSLKSDDTALYYCTRGPLTVGYAMDYWGQGTTVTVSS VL: QLVLTQPPSVSAAPGQKVTISCSGNSSNIGHNYVSWYQQLPGTAPKLLIYDNNQRPSGIPDRFSGSKSDTSATLGITGLQTGDEADYYCGIWDSSLSIVVFGGGTKVTVLG"
10,1980 fold over background,"VG9B114 (antibody, human IgG1, kappa, V domains shown, IgG1, kappa) VH: EVQLVESGGDLVQPGGSLRLSCAASGFTFSRYDMHWVRQATGKGLEWVSAIGSAGDTYYPGSVKGRFTISRENAKNSLYLQMNSLRAGDTAVYYCARGKWELRDAFDIWGQGTMVTVSS VL: DIVMTQSPSFLSASVGDRVTITCRASQGIHSYLAWYQQKPGKAPKLLIYVASTLQSGVPSRFSGSRSGTEFTLTISSLQPEDFATYYCQQLNSYPYTFGQGTKLEIKR"
11,1770 fold over background,"VG9B81 (antibody, human IgG1, kappa, V domains shown, IgG1, kappa) VH: QVQLQESGPGLVKPSETLSLTCSVSGGSINTYYWSWFRQPAGKGLELIGRIYTSDNTNYNPSLKSRVTMSVDTSKNQFSLKLSSVTAADTAVYYCARYNWNYWYFDLWGRGTLVTVSS VL: DIQMTQSPSFLSASVRDRVNITCRASQGISSYLAWYQQKPGKAPKLLIYTASTLQSGVPSRFSGSGSGTEFTLTISSLQPEDFATYYCQHLNSYPYTFGQGTKVEIKR"
12,2290 fold over background,"VG9B372 (antibody, human IgG1, kappa, V domains shown, IgG1, kappa) VH: QVQLQESGPGLVKPSQTLSLTCTVSGGSISNGGFYWSWIRQHPGKGLEWLGYINYSGSTYYNPSLESRGTISLDTSKNQFSLKLRSVTAADTAVYYCARDRNYEWNFDLWGRGTLVTVSS VL: EIVMTQSPATLSLSPGEGATLSCRASQSVSSYLAWYQQKPGQAPRLLVYDASNRATGIPARFSGSGSGTAFTLTITSLEPEDFVVYYCQQRSNWPLTFGGGTKLEIKR"
13,1520 fold over background,"VG9B106 (antibody, human IgG1, kappa, V domains shown, IgG1, kappa) VH: EVQLVQSGAEVKKPGASVKVSCKASGYTFTGYYLHWVRQAPGQGLEWVGWINPSSGDTDYAQTFQGRVTMTRDTSISTAYMELSRLRSDDTAVYYCANELGIGVFDYWGQGTLVTVSS VL: not shown"
14,1820 fold over background,"VG9B65 (antibody, human IgG1, kappa, V domains shown, IgG1, kappa) VH: QVQLVQSGAEVKKPGSSVKVSCKASGGTFNIYAINWVRQAPGQGLEWMGGIIPFFGTANYAQKFQDRVTITADKSTNTAYMELSSLRSEDTAVFYCARGGDSGYDWGFDYWGQGTLVTVSS VL: DIVMTQTPLSSPVTLGQPASISCRSSQSLVHSDGNTYLSWLQQRPGQPPRLLIYQISNRFSGVPDRFSGSGAGTDFTLNISRVEADDVGVYYCMQATQFPLTFGGGTKVEIKR"
15,1680 fold over background,"VG9B103 (antibody, human IgG1, kappa, V domains shown, IgG1, kappa) VH: EVQLVQSGAEVKKPGSSVKVSCKTSGGTFSSYAISWVRQAPGQGLEWMGGIIPIFGTATYAQKFQDRVTITADKSTSTAYMELSSLRSEDTAVFYCARGVGWGTDYYYGLDVWGQGTTVTVSS VL: ETTLTQSPLSSPVTLGQPASISCRSSQGLVHSDGNTYLSWLQQRPGQSPRLLIYKISNRFSGVPDRFSGSGAGTDFTLKISRVEAEDVGVYYCMQATHHPLTFGGGTKVEIKR"
16,2250 fold over background,"VG9B177 (antibody, human IgG1, lambda, V domains shown, IgG1, lambda) VH: QVQLQESGPGLVKPSETLSLTCTVSGGSINNYFWSWIRQPPGKGLEWIGYIFYSGSTNYNPSLKSRVTISIDTSKNQFSLKVNSVTAADTAVYYCARVGKWELRTAFDIWGQGTMVTVSS VL: QSALTQPASVSGSPGQSITISCTGTSSDVADYNYVSWYQQHPGKAPKLMIYEVSNRPSGVSNRFSGSKSGNTASLTISGLQAEDEADYYCCSYTSSFTVVFGGGTKVTVLG"
17,1890 fold over background,"VG9B147 (antibody, human IgG1, lambda, V domains shown, IgG1, lambda) VH: QVQLQESGPGLVNPSETLSLTCTVSGGSISGYFWNWIRQPPGKGLEWIGYIFYSGSTNYNPSLKSRVTISVDTSKNQFSLKLSSVTAADTAIYYCAREGKWELRSTFDIWGQGTMVTVSS VL: SSELTQDPAVSVALGQTVRITCQGDSLRSYYATWYQQKPGQAPILVIYGENNRPSGIPDRFSGSRSGNTASLTITGAQAEDEADYYCNSRDTGDHHLVFGGGTKLTVLG"
18,1400 fold over background,"VG9B131 (antibody, human IgG1, kappa, V domains shown, IgG1, kappa) VH: QVQLVQSGGTLVQPGGSLRLSCAVSGFTFSSYDMNWVRQAPGKGLEWVSYISSSSTAKYYADSVKGRFTISRDNAKNSLYLQMNSLWDEDTAVYYCAREDIVVVTPILQHWGQGTLVTVSS VL: EIVMTQSPATLSLSPGERATLSCRASQSVSNYLAWYQQKSGQAPRLLIYDASNRATGIPARFSGSGSGTDFTLTISSLEPEDFAVYCCQQRSNWTFGQGTRLEIKR"

# Biological target: T2, γδ T cell receptor on human γδ T cells (human)
# T2 construct: also called AG000003021 (γδ T cells)
# Assay: flow cytometry, DRC binding 37 C, human γδ T cells
# Experimental: as §1, §2
row,Max. Activity,Binder
1,1240 fold over background,"VG9B454 (antibody, human IgG1, lambda, IgG1, lambda) heavy: not shown light: QAVLTQPASVSGSPGQSITISCTGTSSDVGGYNYVSWYQQHPGKAPKLMIYEVSNRPSGVSNRFSGSKSGNTASLTISGLQAEDEADYYCSSYTSTSVVFGGGTKLTVLGQPKAAPSVTLFPPSSEELQANKATLVCLISDFYPGAVTVAWKADSSPVKAGVETTTPSKQSNNKYAASSYLSLTPEQWKSHRSYSCQVTHEGSTVEKTVAPTECS"
2,1240 fold over background,"VG9B439 (antibody, human IgG1, lambda, IgG1, lambda) heavy: not shown light: QSALTQPASVSGSPGQSITISCTGTSSDVGGYNYVSWYQQHPGKAPKLMIYEVSNRPSGVSNRFSGSKSGNTASLTISGLQAEDEADYYCSSYTSTSVVFGGGTKLTVLGQPKAAPSVTLFPPSSEELQANKATLVCLISDFYPGAVTVAWKADSSPVKAGVETTTPSKQSNNKYAASSYLSLTPEQWKSHRSYSCQVTHEGSTVEKTVAPTECS"
